For assay [1], the target named is 5FLAG-Scc1 (yeast (budding yeast, Saccharomyces cerevisiae)) (UniProt Q12158). Briefly: co-IP.
Assay [2] shares this target. Description: co-IP. This is another data set of the same source.

Drawing on paper doi:10.1101/2020.02.07.938530, this text covers percentage of cohesin dimers for one substance.

Where two headings read alike, the source gives them in different places.

UniProt Q12158, sequence (Q12158 whole entry): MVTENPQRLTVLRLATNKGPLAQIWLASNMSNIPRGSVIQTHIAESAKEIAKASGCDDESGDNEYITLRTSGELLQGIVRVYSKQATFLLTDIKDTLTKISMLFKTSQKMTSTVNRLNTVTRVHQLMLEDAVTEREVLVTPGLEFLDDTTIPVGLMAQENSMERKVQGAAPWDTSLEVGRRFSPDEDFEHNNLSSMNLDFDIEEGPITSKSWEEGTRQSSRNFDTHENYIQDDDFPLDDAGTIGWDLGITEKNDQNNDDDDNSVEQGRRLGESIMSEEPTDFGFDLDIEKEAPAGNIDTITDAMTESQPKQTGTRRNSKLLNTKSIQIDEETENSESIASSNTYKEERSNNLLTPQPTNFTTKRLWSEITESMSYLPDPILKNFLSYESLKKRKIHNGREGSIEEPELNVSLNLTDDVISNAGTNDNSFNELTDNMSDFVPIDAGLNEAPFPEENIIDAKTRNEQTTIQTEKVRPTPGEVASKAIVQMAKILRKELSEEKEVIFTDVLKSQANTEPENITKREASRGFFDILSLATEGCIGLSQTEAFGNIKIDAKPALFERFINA

In the case of “GFP-Scc1 (from UniProt Q12158 1-566) (natural protein)”, the percentage of cohesin dimers in assay [1] worked out at 40%; in assay [2], 20%.
